In article doi:10.1101/2024.07.14.603434 (bioRxiv, 2024):

Biological target: the molecule itself
Test: SEC

B1: NagS (SCO4393), N-acetylglucosamine-6-phosphate dehydratase (enzyme, Streptomyces coelicolor, UniProt Q9K3V1 1-251, looked up)
chain: MSDHKPAGQFLDAAIDLLRRVRDEEADSIEAAGTLLADTVQNGGRLFAFGAGHSSLAAQDVVYRAGGLALMNLLTVPGVVGIDVMPATLGSALERVDGLASAVLDSSPLRAGDALVIISLSGRNALPVEMAMHARALGLRVIGVTSVAYASQTTSRHASGTFLKDHCDIVLDSKIAVGDAELTLDTVPAPFAPASTVVTAALMQAVTATAAATLADRGIEPPLLRSGNVDGGHEWNARVLEQYGERIFYRR
stoichiometry N: 2
